Test results from paper doi:10.1101/2025.03.20.644192.

Molecular target: Chicken CapZ complex, full length α/β (chicken) (UniProt P13127)
Experiment: ITC

RavB, full length, untagged (RavB^WT) (natural protein)
Kd: 10.8 nM
